Measurements published in publication PMC9540186 (The Plant Journal, 2022).

Biological target: the molecule itself
Assay: SDS-PAGE of non-boiled extracts with Western blot

B1: GFP‐NtUVR8 fusion protein (full‐length Nicotiana tabacum UVR8) (receptor, UniProt A0A1S4AB85 1-441, looked up)
chain: MAADGSSERAVSRKVLLISAGASHSVALLSANVVCSWGRGEDGQLGLGDAEDRFSPTQVSALDEQQIVSVTCGADHATAYSEALKQVYSWGWGDFGRLGHGNSSDLFTPQPIKALHGICIKQIACGDSHCLAVTMEGEVQSWGRNQNGQLGLGTTEDSLVPQKIEAFKGIPVKMVAAGAEHTAAVTEDGELYGWGWGRYGNLGLGDRNDRLVPVKVSATVGEKMFMVACGWRHTICVSSSGSLYTYGWSKYGQLGHGDFEDHLFPHKVQALHDSFTSQISGGWRHTMALTADGELYGWGWNKFGQVGVGDNVDHCSPVQVKFPHDQKVILISCGWRHTLAVTERQNVFSWGRGTNGQLGHGESVDRNVPRIIEALSVDGSSGQQIGSSTSDPSAAEKSWVSPTERYAVVPNENVPKQTVTSVKGNGNDVNVPENDVKRIRL
In the case of B1, the “stoichiometry N” value is reported as 2.
